The values that follow come from article PMC8112011, “Adaptive laboratory evolution accelerated glutarate production by Corynebacterium glutamicum” (Microbial Cell Factories, 2021).

Substrate in the series: NC(=O)CC[C@H](N)C(=O)O
In words: cells, lysate or membranes. In kind it is biochemical, Corynebacterium glutamicum. The note with it: 1.5 mM NADPH, 35 mM 2-oxoglutarate, 100 mM phosphate pH 7.0, 30 °C.

Substitutions are numbered along the chain they refer to. Names and notes keep the numbering of the source.

B1: GltBD (GOGAT, L-glutamic acid-2-oxoglutarate aminotransferase) (Corynebacterium glutamicum ATCC 13032) (protein)
chain: CGVAFIADIHGRPSRSIVDRALEALRNIDHRGAAGAEKNTGDGAGILMQIPDGFYREVSGIELPEAGEYATGIAFLPRGRMAMMDAQKEIERIAKQEGADVLGWRMVPFDSRDLGSMAEEAMPSFAQIFLTVPGKSGEDLDRVMFFIRKRCERELGTTNGRDTVYFPSLSSRTIIYKGMLTTLQLEGFFEDLGDARLESAIAIVHSRFSTNTFPSWPLAHPYRFVAHNGEINTVRGNENWMRAREALIKNDKLGNLSSVLPICTPEGSDTARFDEALELLHLGGYSLPHAVAMMIPQAWEHNKTLSPELRDFYEYHSCLMEPWDGPAALAFTDGRFVGAVLDRNGLRPGRITITDSGLVVMASESGVLDLREESVVKRTRVQPGRMFLVDTAEGRIVEDEEIKQKLSEAQPYGEWIRDNFVHLDRLPQTRYNYMAHSRAVLRQRVFGITEEDVDLLLLPMARQGAEAIGSMGSDTPIAALSQRPRMLYDFFAQRFAQVTNPPLDSIREKPVTSMFTLLGAQSDVLNPGPDAARRIRLESPIIDNHELATLINANAHGEWDSFGAAVISGLYPVAHHGAGMKAAIARVRREVSEAIRNGKTLIVLSDRESDERMAPIPALLLTSAVHQYLVQQRTRTQCSLVVESGDAREVHHLAMLIGFGADAINPYMAFETIDELRMKGQLGDLSLDEASRNYIKAATTGVLKVMSKMGIATVSSYRGAQLADVTGLHQDLLDNYFGGIASPISGIGLDEVAADVEARHRSAFLPRPEEHAHRELDLGGEYKWRREGEYHLFNPETIFKLQHATRSGSYEIFKDYTRKVDDQSTRLGTIRGLFEFSTDRKPISVSEVEPVSEIVKRFSTGAMSYGSISAEAHEVLAIAMNRLGGMSNSGEGGEDARRFDVEPNGDWKRSAIKQVASGRFGVTSHYLNNCTDIQIKMAQGAKPGEGGQLPPNKVYPWVAEVRITTPGVGLISPPPHHDIYSIEDLAQLIHDLKNANPRARIHVKLVAEQGVGTVAAGVSKAHADVVLISGHDGGTGASPLTSLKHAGGPWELGLAETQQTLLLNGLRDRIRVQCDGQLKTGRDVVIAALLGAEEFGFATAPLVVEGCIMMRVCHLDTCPVGIATQNPDLRSKFTGKAEHVVNFFTFIAQEVREYLAQLGFRSIDEAVGQAQVLRKRSGIPADSRAAHLDLSPIFHRPETPHFPTQDVRCTKTQEHSLEKALDNAFIDKASDTITRAAAGVETSIVIDSSISNVNRSVGTMLGSAVSRVAGAQGLPDGTITLNLQGCAGNSFGAFIPRGITINLTGDANDFVGKGLSGGKIVIKPSAQAPKQLKNNPNIIAGNVLGYGATSGELFIRGQVGERFCVRNSGATAVVEGIGNHGCEYMTGGRVLVLGPVGENFGAGMSGGIAYLANSPDLNQKINGELVDVVPLSADDLTWADELIARHRELTGSETKLRAQDLVKIMPRDFQKVLNIIETAHAEGQDPAIKIMEAVS
notes: full-length gltBD on plasmid pEKEx3, overexpressed in C. glutamicum GRLys1ΔgltB (chromosomal gltB deleted); untagged; crude extract; with Glutamate synthase [NADPH] small chain
As to B1, the Michaelis constant (Km) – broadly, the substrate concentration at which the rate is half of its maximum – came to 250 ± 30 µM.

B2: GltBD (GOGAT, L-glutamic acid-2-oxoglutarate aminotransferase) (Corynebacterium glutamicum ATCC 13032; E686Q) (protein)
chain: B1 chain with E671Q
notes: as for B1
B2: the Km was 520 ± 40 µM.
